Laboratory results from publication PMC10021056 (Nature Communications, 2023).
Residue numbers refer to the chain shown, from its start.

B1: 201805_NiV_PL4_C7 (antibody, V domains shown)
VH: FEESGGLVQPGGSMKISCVASGFTFSNYWMNWVRQSPEKGLEWIAQIRLKSDNYATHYAESVKGRFTISRDDSKSSVYLQMNNLRAEDSGIYYCTGILDYWGQGTSVTVSQ
VL: YIQMTQSPSSMSVSLGDTVSITCHASQGISSNIGWLQQKPGKSFKVLIYHGTNLEDGVPSRFSGSGSGADYSLTISSLESEDFADYYCVQYAQFPYTFGGGPNDKT
B2: 201805_NiV_P2_F7 (antibody, V domains shown)
VH: QVQLQQSGAELVKPGASVKMSCKASGYTFTNYWIHWVKQRPGQGLEWIGEIDPSNGNSDHNQDFKVKATLTVDTFSSTAYMQLNSLTSEDSAVYYCARSRYYFDYWGQGTTLTVSA
VL: QIVLPQSPAIMSASPGEKVTLTCSARSSVSSGYLYWYQQKPGSSPKLWIYSTSNLASGVPTRFSGSGSGTSYSLTISSMEAEDAASYFCHQWSSYPPTFGGGTKLEIK
B3: 201805_NiV_PL4_C5 (antibody, V domains shown)
VH: EVQLQQSGPELVKPGASMKISCKASGYSFTGYTMNWVKQSHGKNLEWIGLINPYIGGTSYNQKFKGKATLTVDKSSSTAYMELLSLTSEDSAVYYCARLLGREGYYFDYWGQGTTLTSLS
VL: DIQMTQTTSSLSASLGDRVTISCRASQDISNYLNWYQQKPDGTVKLLIYYTSRLHSGVPSRFSGSGSGTDYSLTISNLEQEDIATYFCQQGTTLPFTFGSGTKWKN
B4: 201805_NiV_PL4_D5 (antibody, V domains shown)
VH: QIQLVQSGPELKKPGETVKISCKASGFTFTNYGINWVKQAPGKGLKWMGWTDTFTGEPTYADDFKGRFAFSLETSASTAYLQINNLKNEDMATYFCARQGWGEAMDYWGQGTSVTVSA
VL: DVLDEQFHFLPVSLGDQASISCRSSQSIVHSNGNTYLEWYLQKPGQSPKLLIYKVSNRFSGVPDRFSGSGSGTDFTLKISRVEAEDLGVYYCFQGSHVPWTFGGGTKLEIK
B5: 201805_NiV_P2_D4 (antibody, V domains shown)
VH: EVQLQQSGAELVKPGASVKMSCKASGYTFTDYSIHWVKQKSGQGLEWIGWFYPGSGSIKNSDKVKDEAILTADKSSSTVYLELSSLTSEDSAVYFCARHGGGYDYGRAWFVYWGQGTLVTLEQ
VL: FTQMTQSPKFLLVSAGDRVTITCKASQSVSNDVAWYQQKPGQSPKLLIYYASNRYTGVPDRFTGSGYGTDFTFTISTVQAEDLAVYFCQQDYGSPYTFGGGTKLKN
B6: 201805_NiV_PL3_H6 (antibody, V domains shown)
VH: EVQLEESGGGLVKPGGSLKLSCTASGFAFSTYDMSWVRQTPEKRLEWVAYISSGGGSTYYPDSVKGRFTISRDNARNTLYLQMSSLKSDDTAMYYCVRDDGYYGGAWFAYWGQGTLVTVSA
VL: DIQMTQTTSSLSASLGDRVTISCRASQDIRNYLNWYQQKPDGTVKLLIYYTSRFHSGVPSRFSGSGSGTDYSLTINNLEQEDITTYFCQQGYILPWTFGGGTKLEIK
B7: 201805_NiV_PL3_C3 (antibody, V domains shown)
V domain 1: RFKLQQSGPELVKPGASMKISCKASGYSFTGYTMNWVKQSHGKNLEWIGLINPYIGGTSYNQKFKGKATLTVDKSSSTAYMELLSLTSEDSAVYYCARGGVYYGSNYDFDYWGQGTTLTSLS
V domain 2: DIQMTQTTSSLSASLGDRVTISCSASQGISNYLNWYQQKPDGTVKLLIYYTSSLHSGVPSRFSGSGSGTDYSLTISNLEPEDIATYYCQQYSKLPRTFGGGTKLKSN
B8: 201805_NiV_PL4_D8 (antibody, V domains shown)
VH: EVQLQQSGPELVKPGASVKISCQASGYTFTDSNMNWVRQTHGKSLEWIGDVNPNNGGTSYNQRFKGKATLTVDKSSSTAYMEFRSLTSEDSAVYFCSRRALITTVVADYYGLDYWGQGTSVTVSA
VL: SIVMTQSPKFLLVSAGDRVTMTCKASQSVNSDVVWFQQKPGQSPKLLIYYASIRYTGVPDRFTGSGYGTDFTFTISPVQAEDLAVYFCQQDYSSPYTFGGGTKLEIK
B9: 201805_NiV_P1_A6 (antibody, V domains shown)
VH: LCLLTSSRSGLVRPGASVKLSCKASGYSFTSYWMNWVKQRPGHGLEWIGMIHPSDSETRLNQRFKDKATLTVDKSSSTAYMQLSSPTSEDSAVYYCAREDFYAMDYWGQGTSVTFSA
VL: DIVMSQSPSSLAVSVGEKITMSCKSSQSLLYSSNKKKYLAWYQQKPGQSPKLLIYWASTRESGVPDRFTGSGSGTDFTLTISSVKAEDLAVYYCQQYYSYPYTFGGGPSNKR
B10: 201805_NiV_PL3_E1 (antibody, V domains shown)
VH: RFRLQQSGAELVKPGASVKLSCRASGYIFTSYWMHWVKQRPGQGLEWIGMIHPNSGSPNYNEKFKSKATLTVDNSSSTAYMQLSSLTSEDSAVYYCARTLLGQGAWFAYWGQGTLVTLAA
VL: YIQMTLSPATLSVTPGDRVSLSCRASQSISDFLHWYQQKSHESPRLLIKYASQSISGIPSRFSGSGSGSDFTLSINSVEPEDVGVYYCQNGHSFPYTFGGGTKLKT
B11: 201805_NiV_PL4_E11 (antibody, V domains shown)
VH: QVQLQQSGAELVKPGASVKLSCKASGYTFTNYDINWVRQRPEQGLEWIGWIFPGDGTTSYNEKFKDKATLTTDKSSSTAYMQLSRLTSEDSTVYFCARLGWGGAMDYWGQGTSVTVSA
VL: YTLMTQSPLSLPVSLGDQASISCRSSQSIVHSNGNTYLQWYLQKPGQSPKLLIYKVSNRFSGVPDRFSGSGSGTDFTLKISRVEAEDLGVYYCFQGSHVPYTFGGGPSNKR
B12: 201805_NiV_P1_G1 (antibody, V domains shown)
VH: QVQLQQSGAELAKPGASVKLSCKATGYTFTGSWIEWVKLRPGHGLEWFGEIFPGTGSVKHNEKFRGKAIITAETSSNTAYMKLSSLTTEDSAIYFCSRSNTNYEFFDVWGTGTTVTVSS
VL: EILLTQSPAIISASPGERVTFTCSASSGVNYMNWYQQKPGSSPKIWIYGVSNLASGVPARFSGSGSGTSFSFTITNLEAEDVATYYCQQRSTFPLTFGAGTKLEIK
B13: 201805_NiV_P1_H5 (antibody, V domains shown)
VH: EFQLQQSGPEVVKPGASVRISCKTSGYSFTDYNMNWVRQNNGRSLEWIGVINPNYGTFTYNQKFRGKATLTVDQSSSTAYMQLNSLTSADSAVYFCARAPDYYGINFYFDYWGQGTTLTVSA
VL: DVVMTQTPLSLPVSLGDQASISCRSSQSLVHSNGDTYLHWYLQKPGQSPKLLIYKVSNRFSGVPDRFSGSGSGTDFTLKISRVEAEDLGVYFCSQSTHVPPWTFGGGTKLEIK
B14: 201805_NiV_PL4_F4 (antibody, V domains shown)
VH: B13 VH with R19K, R38K, N40S, R43K, F58T, A89E, F95Y
VL: B13 VL with T7S
B15: 201805_NiV_PL3_H3 (antibody, V domains shown)
V domain 1: EVQLEESGGGLVPGGSLKLSCAASGFTFISYAMSWIRQTPEKRLEWVATITSGGSYTYYPDSVMGRFTISRDNAKNTLHLQMSSLRSEDTAIYYCARGGYGSISPYYFDYWGQGTTLTSSA
V domain 2: DIQMTQSSSSFSVSLGDRVTITCKAGEDIYNRLAWYQQKPGNAPRLLISGAISLETGVPSRFSGSGSGKDYTLSITSLQTEDVATYYCQQYWTNPWTFGGGTKLKSN
B16: 201805_NiV_PL3_H11 (antibody, V domains shown)
VH: EVQLQQSGPELVKPGTSVKISCKASDYSFTGYFMNWVKQSHGKSLEWIGRINPYNGDTFYNQKFKGKATLTVDKSSSTAHMELLSLTSEDSAVYYCAAFDVYYPAWFAYWGQGTTVTVSS
VL: B15 V domain 2 with I21F, G26S, I52T, S74T, T93S, N94I, K105E, S106I, N107K
B17: 201805_NiV_PL3_A4 (antibody, V domains shown)
VH: QVQLQQSGTELVKPGASVKLSCKASGYTFTSYWMHWVKQRPGQGLEWIGNINPSNGYTNNNEKFKSKATLTVDKSSSTAYMQLSSLTSEDSAVYYCARGGIYYYGSSLYYYTMDYWGQGTSVTVSS
VL: B15 V domain 2 with G26S, G50D, I52T, Q89H, T93S, N94T, K105E, S106I, N107K
B18: 201805_NiV_PL3_G2 (antibody, V domains shown)
VH: QIQLVQSGPELKKPGETVKISCTTSGFIFRNYGVNWVKRAPGKGLKWMGWIDAYTGEPAYADDFKGRFAFSLEMSANTAYLQITNLKNEDMATYFCARQGWGEAMDYWGQGTSVTVSS
VL: DVLMTQSPLSLPVSSGDQASISCRSSQTFVHSNGNTYLEWYLQKPGQSPKLLIYKVSNRFSGVPDRFIGSGSGTDFTLKISRVEADDLGVYYCFQGSHVPWAFGGGTKLEIK
B19: 201805_NiV_PL3_G11 (antibody, V domains shown)
VH: QVQLQQSGAELVKPGASVKLSCKASGYIFTNYDINWVRQRPEQGLEWIGWIFPGDVSTNYNEKFKGKATLTTDKSSSTAYMQLSRLTSEDSAVYFCARRSFQAMDYWGQGTSVTVSA
VL: B18 VL with S7T, S15L, T28S, F29I, I68S, D86E, A102T
B20: 201805_NiV_PL3_D4 (antibody, V domains shown)
VH: EVQLQQSGPELVKPGASVKMSCKASGYTFTSNVMHWVKQKPGQGLEWIGYINPYNDGTRYNEKFKGKATLTSDKSSSTAYMELSSLTSEDSAVYYCARRFYRGAMDYWGQGTSVTVSA
VL: NIVLHQSPASLAVSLGQRATISCRASESVDTYDNSFMHWYQQKPGQPPKLLIYLASKLESGVPARFSGSGSRTDFTLTIDPVEADDAATYYCQQNYEDPYTFGGGTKLEIK
B21: 201805_NiV_PL4_E1 (antibody, V domains shown)
VH: EVQLEESGGGLVPGGSLKLSCAASGFTFSDYYMYWVRQTPEKRLEWVATISDGGSYTYYPDSVKGRFTISRDNAKNNLYLQMSSLKSEDTAMYYCAREKPDRGHYYAMDYWGQGTSVTVLQ
VL: IQMTQSSSSFSVSLGDRVTITCKASEDIYNRLAWYQQKPGNAPRLLISGATSLETGVPSRFSGSGSGKDYTLSITSLQTEDVATYYCQQYWSTPYTFGGGTKLKN

Legend:
[1] = target: prefusion-stabilized Nipah virus fusion (F) glycoprotein, construct NiVF_prefusion (Nipah virus, Malaysian strain, stabilised)
[2] = target: postfusion Nipah virus fusion (F) glycoprotein, construct NiVF_postfusion (Nipah virus, Malaysian strain, stabilised)
[3] = target: prefusion-stabilized NiV F (NiVop08) (Nipah virus, Malaysian strain, stabilised)

Binder | binding result [1] | binding result [2] | binding result [3]
B1 | binds |  | 
B2 | binds | binds | 
B3 |  |  | binds
B4 | binds | binds | 
B5 | binds |  | 
B6 | binds | binds | 
B7 |  |  | binds
B8 |  |  | binds
B9 | binds | binds | 
B10 | binds | binds | 
B11 | binds | binds | 
B12 | binds | binds | 
B13 |  |  | binds
B14 |  |  | binds
B15 | binds | binds | 
B16 |  |  | binds
B17 | binds |  | 
B18 | binds | binds | 
B19 | binds | binds | 
B20 |  |  | binds
B21 | binds |  | 
